Experimental data: patent publication US20240383958A1, “APELIN RECEPTOR AGONISTS AND USES THEREOF” (VISTERRA, INC., priority 2023, published 2024)
Changes are numbered by the printed parent chain. In names and notes the source's numbering stands. Each block holds one molecule with its values, some of them ahead of it.

Assays:
apelin receptor = biological target: T1, apelin receptor (Homo sapiens, UniProt P35414); details: human heart; cited from earlier work
T1 construct: host or cells: human heart tissue
T1 sequence (P35414 1-380): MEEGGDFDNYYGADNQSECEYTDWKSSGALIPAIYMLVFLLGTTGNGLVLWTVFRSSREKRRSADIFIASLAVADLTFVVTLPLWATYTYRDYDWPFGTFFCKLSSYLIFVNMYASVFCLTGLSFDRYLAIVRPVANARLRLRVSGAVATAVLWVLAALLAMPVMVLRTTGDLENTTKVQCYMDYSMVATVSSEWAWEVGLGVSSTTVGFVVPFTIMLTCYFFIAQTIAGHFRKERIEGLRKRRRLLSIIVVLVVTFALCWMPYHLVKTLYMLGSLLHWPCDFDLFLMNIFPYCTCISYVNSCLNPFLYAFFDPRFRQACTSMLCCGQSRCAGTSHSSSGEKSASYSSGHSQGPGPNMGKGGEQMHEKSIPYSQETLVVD

[1] = Proteolysis during production detected using mass spectroscopy; format: physicochemical; details: proteolytic stability
Description: Proteolysis during production was detected using mass spectroscopy, which provides insights into the proteolytic stability of the apelin receptor agonists.

apelin receptor (AGTRL1) = biological target: T2, apelin receptor (AGTRL1) (Homo sapiens, UniProt P35414); assay: PathHunter beta-arrestin signaling assay; format: cell-based; details: PathHunter CHO-K1 AGTRL1 β-arrestin cells
T2 construct: host or cells: CHO-K1
T2 sequence (P35414 1-380): T1 sequence (P35414 1-380)
Experimental: In this example, commercially available HitHunter® cAMP assay was used to determine the effect of apelin receptor agonists on Gai signaling, measured cAMP depletion. Next, commercially available PathHunter® beta-arrestin assay was used to determine the effect of apelin receptor agonists on beta-arrestin signaling. Additionally, the effect of apelin receptor agonists on ERK signaling was determined.
In a 384-well plate (Corning #3897), PathHunter® CHO-K1 AGTRL1 β-arrestin cells (Eurofins DiscoverX #93-0250C2) were seeded at 5×10^3 cells/well in 20 μL AssayComplete Cell Plating 2 Reagent (Eurofins DiscoverX #93-0563R2A) and were incubated overnight at 37° C. with 5% CO2. On the following day, the plate was treated with 5 μL/well of compounds serially diluted in 1×PBS+0.1% BSA buffer and was incubated for 1.5 hr at 37° C. with 5% CO2. Then, 12.5 μL/well of detection solution was added, prepared as instructed in the PathHunter® Detection Kit (Eurofins DiscoverX #93-0001), the plate was wrapped in foil, and was incubated at room temperature. Plates were read after 1-2 hr of incubation on a standard luminescence plate reader. In this assay, low levels of β-arrestin in cells were directly related to low luminescence signal. Using Four Parameter Logistic Regression for curve fitting, the raw data file was processed into S-shaped dose-response curves from which values, such as the EC50, Hill Slope, and Emax, were quantified.

APJ-eGFP fusion protein = assay: Internalization assay, CHO-M1 cells expressing APJ-eGFP, high-content imaging; format: cell-based; design: key: 0: No Internalization; >1000; 2: 100-1000; 3: 10-100; 4: <10; details: lowest concentration at which maximum internalization was observed; 0.914 nM to 2000 nM
Experimental: In this example, the internalization of exemplary apelin receptor agonist was assessed. CHO-M1 cells expressing an APJ-eGFP fusion protein were stained and plated in a 96-well plate. Apelin receptor agonists were serially diluted and added to the wells at concentrations ranging from 0.914 nM to 2000 nM. The cells were later imaged using an Operetta CLS™ high-content analysis system. APJ-eGFP signal was measured in the membrane and cytoplasmic region, and the ratio of membrane signal to total signal was calculated (E ratio). An internalization score was assigned based on the lowest concentration of the compound at which maximum internalization was observed. The internalization score for each apelin receptor agonist was plotted against the EC50 values for cAMP signaling and beta-arrestin signaling as shown in FIG. 2 and FIG. 3.

[2] = biological target: T3, APJ-eGFP fusion protein on CHO-M1 cells (UniProt P35414 1-380); assay: cell-based or functional assay
T3 sequence (looked up): T1 sequence (P35414 1-380)

[3] = biological target: T4, apelin receptor (AGTRL1) on CHO-K1 cells (UniProt P35414 1-380, limits assumed); assay: cell-based or functional assay
T4 sequence (looked up): T1 sequence (P35414 1-380)

Molecule: elabela-21
- affinity for the apelin receptor (apelin receptor): nanomolar affinity

B1: ELA-D: Fc-linker fusion of elabela analogue KLRKHNCLQRRCMPLHQRVPFP (S17Q) (protein)
chain: MRAWIFFLLCLAGRALADKTHTSPPSPAPEAAGGPSVFLFPPKPKDTLMISRTPEVTCVVVDVSHEDPEVKFNWYVDGVEVHNAKTKPREEQYNSTYRVVSVLTVLHQDWLNGKEYKCKVSNKALPAPIEKTISKAKGQPREPQVYTLPPSREEMTKNQVNLTCLVKGFYPSDIAVEWESNGQPENNYKTTPPVLDSDGSFFLNSTLTVDKSRWQQGNVFSCSVMHEALHNHYTQKSLSLSPGKGGGGSGGGGSGGGGSKLRKHNCLQRRCMPLHQRVPFP
- Proteolysis During Production? [1]: No
- beta-Arrestin EC50 (nM) Exp. 1 (apelin receptor (AGTRL1)): Weak
- Internalization Score (APJ-eGFP fusion protein): 1 (>1000)

B2: ELA-E: Fc-linker fusion of elabela analogue KLRKHNCLQRRCMPLHRRVPFP (S17R) (protein)
chain: B1 chain with Q276R
- Proteolysis During Production? [1]: No
- beta-Arrestin EC50 (nM) Exp. 1 (apelin receptor (AGTRL1)): Weak
- Internalization Score (APJ-eGFP fusion protein): 0

B4: ELA-C (Fc fusion)
chain: DKTHTSPPSPAPEAAGGPSVFLFPPKPKDTLMISRTPEVTCVVVDVSHEDPEVKFNWYVDGVEVHNAKTKPREEQYNSTYRVVSVLTVLHQDWLNGKEYKCKVSNKALPAPIEKTISKAKGQPREPQVYTLPPSREEMTKNQVNLTCLVKGFYPSDIAVEWESNGQPENNYKTTPPVLDSDGSFFLNSTLTVDKSRWQQGNVFSCSVMHEALHNHYTQKSLSLSPGKGGGGSGGGGSGGGGSKLRKHNCLQRRCMILHSRVPFP
- Internalization Score [2]: 2
- ERK EC50 [3]: 1.13 nM
- beta-Arrestin EC50 (nM) Exp. 1 [3]: 535 nM
- beta-Arrestin EC50 (nM) Exp. 2 [3]: 75.1 nM
- cAMP EC50 (nM) Exp. 1 [3]: 0.577 nM
- cAMP EC50 (nM) Exp. 2 [3]: 1 nM

B5: ELA-D (Fc fusion)
chain: B4 chain with I256P, S259Q
- Internalization Score [2]: 1
- beta-Arrestin EC50 (nM) Exp. 2 [3]: 922 nM
- cAMP EC50 (nM) Exp. 1 [3]: 10.7 nM
- cAMP EC50 (nM) Exp. 2 [3]: 4.4 nM

B11: ELA-E (Fc fusion)
chain: B4 chain with I256P, S259R
- Internalization Score [2]: 0
- beta-Arrestin EC50 (nM) Exp. 2 [3]: 352 nM
- cAMP EC50 (nM) Exp. 1 [3]: 4.42 nM
- cAMP EC50 (nM) Exp. 2 [3]: 2.4 nM

Second part, led by results:

- beta-Arrestin EC50 (nM) Exp. 2 (apelin receptor (AGTRL1); Exp. 2): Weak
B3: ELA-J: Fc-linker fusion of elabela analogue KLRKHNCLQERCMPLHSRVPFP (R10E) (protein)
chain: B1 chain with R269E, Q276S
- Proteolysis During Production? [1]: Yes

- Internalization Score [2]: 1
- beta-Arrestin EC50 (nM) Exp. 1 [3]: 89.1 nM
- beta-Arrestin EC50 (nM) Exp. 2 [3]: 521 nM
- cAMP EC50 (nM) Exp. 1 [3]: 9.91 nM
- cAMP EC50 (nM) Exp. 2 [3]: 14.3 nM
B6: ELA-G (Fc fusion)
chain: B4 chain with I256P, R260Y

- Internalization Score [2]: 2
- beta-Arrestin EC50 (nM) Exp. 1 [3]: 3.45 nM
- beta-Arrestin EC50 (nM) Exp. 2 [3]: 12.2 nM
- cAMP EC50 (nM) Exp. 1 [3]: 4.76 nM
- cAMP EC50 (nM) Exp. 2 [3]: 5.7 nM
B7: ELA-K (Fc fusion)
chain: B4 chain with Q251I, I256P

- Internalization Score [2]: 2
- beta-Arrestin EC50 (nM) Exp. 1 [3]: 21.9 nM
- beta-Arrestin EC50 (nM) Exp. 2 [3]: 97.5 nM
- cAMP EC50 (nM) Exp. 1 [3]: 10 nM
- cAMP EC50 (nM) Exp. 2 [3]: 5.8 nM
B8: ELA-H (Fc fusion)
chain: B4 chain with I256P, L257Y

- Internalization Score [2]: 3
- beta-Arrestin EC50 (nM) Exp. 1 [3]: 9.59 nM
- beta-Arrestin EC50 (nM) Exp. 2 [3]: 43.5 nM
- cAMP EC50 (nM) Exp. 1 [3]: 1.01 nM
- cAMP EC50 (nM) Exp. 2 [3]: 1 nM
B9: ELA-F (Fc fusion)
chain: B4 chain with Q251K, I256P

- Internalization Score [2]: 2
- beta-Arrestin EC50 (nM) Exp. 1 [3]: 7.54 nM
- beta-Arrestin EC50 (nM) Exp. 2 [3]: 6.9 nM
- cAMP EC50 (nM) Exp. 1 [3]: 0.632 nM
- cAMP EC50 (nM) Exp. 2 [3]: 2.8 nM
B10: ELA-L (Fc fusion)
chain: B4 chain with L250A, Q251T, I256P
